The record followed here is patent US20230151091A1 (NEW YORK UNIVERSITY, published 2023).

Assay [1] addresses T1, cynomolgus monkey MuSK (cynomolgus monkey, UniProt A0A2K5USF6 24-487). The assay is described as follows: Biacore, MuSK on chip, association pH 7.4, dissociation pH 5.5. As to the method: (§1) For affinity determination, a CMS chip was coated with cynomolgus monkey, rat and mouse MuSK (200RU) and 66.7 nM of antibody was applied and kinetic parameters calculated (Table 8). The following conclusions could be drawn: (1) 3B2g1m3 and 3B2g2m3 (m3 variants) show significant drop in affinity for MuSK for all species tested; (2) 3B2g1m2 and 3B2g2m2 (m2 variants) show some drop in affinity for MuSK; (3) 3B2g1m1, 3B2g2m1, 3B2g1m4, 3B2g2m4 (ml and m4 variants) show no drop in affinity for MuSK for all species tested; and (4) for all clones there is no difference between g1 and g2 variants (VL methionine versus serine in CDR3).
(§2) In order to study pH dependent binding of our antibodies to MuSK, the same Biacore was used as above, but now dissociation was done at pH 5.5 instead of pH 7.4. […] The following conclusions could be drawn for the different variants: (1) 3B2g1m3 and 3B2g2m3 (m3 variants) show significant drop in affinity for MuSK for all species tested; (2) 3B2g1m2 and 3B2g2m2 (m2 variants) show some drop in affinity for MuSK; (3) 3B2g1m1, 3B2g2m1, 3B2g1m4, 3B2g2m4 (m1 and m4 variants) show no drop in affinity for MuSK for all species tested; and (4) for all clones there is no difference between g1 and g2 variants (VL methionine versus serine in CDR3).

The target in assay [2] is T2, mouse MuSK (mouse, UniProt Q61006 22-494, limits assumed).
T2 construct: Coated on ELISA plates or on the Biacore chip; also called full length mouse MuSK; mouse MuSK (in house produced in HEK293 cells)
T2 sequence (looked up): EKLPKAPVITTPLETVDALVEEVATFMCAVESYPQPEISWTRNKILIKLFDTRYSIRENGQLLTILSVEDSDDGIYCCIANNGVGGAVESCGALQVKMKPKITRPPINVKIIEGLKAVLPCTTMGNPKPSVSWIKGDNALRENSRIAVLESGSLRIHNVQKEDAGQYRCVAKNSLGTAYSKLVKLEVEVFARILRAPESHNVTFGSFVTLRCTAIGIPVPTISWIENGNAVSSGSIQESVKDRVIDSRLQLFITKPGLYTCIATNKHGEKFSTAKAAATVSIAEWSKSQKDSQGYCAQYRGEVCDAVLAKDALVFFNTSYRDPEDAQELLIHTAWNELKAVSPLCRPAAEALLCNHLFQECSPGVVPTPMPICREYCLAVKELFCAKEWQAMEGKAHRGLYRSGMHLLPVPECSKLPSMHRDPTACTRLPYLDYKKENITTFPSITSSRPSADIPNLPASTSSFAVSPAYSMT
The assay is described as above. The protocol:
as §1, §2

Assay [3] addresses T3, rat MuSK (rat, UniProt Q62838 22-494, limits assumed).
T3 construct: Coated on Biacore chip (200RU) or ELISA plate
T3 sequence (looked up): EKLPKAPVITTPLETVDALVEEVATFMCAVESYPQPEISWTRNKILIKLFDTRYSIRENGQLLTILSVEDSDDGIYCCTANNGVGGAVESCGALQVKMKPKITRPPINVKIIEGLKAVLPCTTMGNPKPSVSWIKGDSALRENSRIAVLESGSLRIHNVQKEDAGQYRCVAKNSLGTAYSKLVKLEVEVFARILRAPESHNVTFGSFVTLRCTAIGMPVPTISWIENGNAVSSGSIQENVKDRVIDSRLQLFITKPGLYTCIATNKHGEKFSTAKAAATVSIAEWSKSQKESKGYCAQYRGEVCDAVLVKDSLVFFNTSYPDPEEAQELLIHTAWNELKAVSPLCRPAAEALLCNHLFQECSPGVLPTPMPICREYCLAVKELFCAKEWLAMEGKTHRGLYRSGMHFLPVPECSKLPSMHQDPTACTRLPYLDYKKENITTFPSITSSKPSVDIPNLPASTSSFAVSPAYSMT
The assay is described as above. As to the method:
as §1, §2

Assay [4] deals with T1, cynomolgus monkey MuSK. As to the kind of experiment: Biacore, MuSK on chip (200RU), 66.7 nM mAb, dissociation pH 7.4. As to the method: as §1
For orientation: SPR reads the build-up and loss of mass on a sensor chip optically.

Assay [5] deals with T2, mouse MuSK. Described as above. As to the method:
as §1

Assay [6] concerns the target T3, rat MuSK. The assay is described as above. The protocol:
as §1

In assay [7] the target is T4, mouse MuSK, endogenous (C2C12 myotubes; neuromuscular synapses of mice) (mouse, UniProt Q61006 22-868).
T4 sequence (looked up): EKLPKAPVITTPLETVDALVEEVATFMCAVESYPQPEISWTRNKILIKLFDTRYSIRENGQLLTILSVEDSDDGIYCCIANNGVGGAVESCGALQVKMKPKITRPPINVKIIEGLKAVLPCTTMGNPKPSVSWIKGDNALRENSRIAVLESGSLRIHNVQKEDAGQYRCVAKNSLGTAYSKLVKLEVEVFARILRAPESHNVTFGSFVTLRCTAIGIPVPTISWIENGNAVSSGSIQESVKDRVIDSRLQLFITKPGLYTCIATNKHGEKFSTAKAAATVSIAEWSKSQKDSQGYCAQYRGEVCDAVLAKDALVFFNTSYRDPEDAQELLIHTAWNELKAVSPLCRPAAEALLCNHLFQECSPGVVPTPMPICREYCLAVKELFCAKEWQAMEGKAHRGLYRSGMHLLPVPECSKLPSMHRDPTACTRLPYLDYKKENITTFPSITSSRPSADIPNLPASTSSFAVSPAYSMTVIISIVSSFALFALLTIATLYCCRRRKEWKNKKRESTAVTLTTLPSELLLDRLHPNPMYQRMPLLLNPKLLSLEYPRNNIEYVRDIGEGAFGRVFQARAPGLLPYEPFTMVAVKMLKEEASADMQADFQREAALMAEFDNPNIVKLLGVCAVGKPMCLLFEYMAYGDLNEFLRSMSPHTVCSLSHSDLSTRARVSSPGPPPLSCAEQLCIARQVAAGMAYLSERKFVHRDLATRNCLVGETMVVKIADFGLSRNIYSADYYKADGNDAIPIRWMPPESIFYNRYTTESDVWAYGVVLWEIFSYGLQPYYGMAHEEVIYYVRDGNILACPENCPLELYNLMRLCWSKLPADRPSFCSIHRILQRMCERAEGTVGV
The assay is described as follows: cell-based or functional assay.

In assay [8] the target is T2, mouse MuSK. The assay is described as follows: Biacore, MuSK on chip, association pH 7.4, dissociation pH 5.5; association at pH 7.4, dissociation at pH 5.5. As to the method: as §1, §2

T1 sequence (A0A2K5USF6 entry or part of it): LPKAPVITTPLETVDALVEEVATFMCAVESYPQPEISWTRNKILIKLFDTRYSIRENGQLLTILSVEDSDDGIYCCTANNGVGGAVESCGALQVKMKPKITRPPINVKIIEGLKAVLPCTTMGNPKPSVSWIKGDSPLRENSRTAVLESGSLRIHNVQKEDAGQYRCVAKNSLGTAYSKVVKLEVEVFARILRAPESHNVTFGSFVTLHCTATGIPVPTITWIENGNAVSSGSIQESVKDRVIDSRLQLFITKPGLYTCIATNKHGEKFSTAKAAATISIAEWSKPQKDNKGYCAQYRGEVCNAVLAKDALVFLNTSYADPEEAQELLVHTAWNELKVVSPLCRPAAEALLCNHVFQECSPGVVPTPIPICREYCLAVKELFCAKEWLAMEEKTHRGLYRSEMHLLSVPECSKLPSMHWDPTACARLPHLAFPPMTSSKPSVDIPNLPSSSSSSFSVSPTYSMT

B1: 3B2g1m2 (antibody, human IgG1, V domains shown)
VH: EVQLLESGGGLVQPGGSLRLSCAASGFTFSDYGMSWVRQAPGKGLEWVSAIPGSGGSTYYKESVKGRFTISRDNSKNTLYLQMNSLRAEDTAVYYCAKRSGRIAFGALDAWGQGTLVTVSS
VL: QTVVTQEPSFSVSPGGTVTLTCGLSSGSVTSSNYPDWYQQTPGQAPRTLIYSTDSRHSGVPDRFSGSILGNKAALTITGAQADDESDYYCGLYMYSGSKNYVFGGGTKLTVL
notes: human IgG1-LALA backbone; produced in HEK293 cells
As usually defined, the koff is the rate constant with which the complex falls apart. A word on the kon: it is the second-order rate constant of association. Turning to B1, the R0 in the assay with cynomolgus monkey MuSK [1] came out at 148 RU; in the assay with mouse MuSK [2], 152 RU; with rat MuSK [3] it was 136 RU; in the assay with cynomolgus monkey MuSK [4], 133 RU; with mouse MuSK [5], 155 RU; with rat MuSK [6] it was 125 RU. Further, the koff came out at 0.0034 s⁻¹ with cynomolgus monkey MuSK [1]; 0.0865 s⁻¹ with rat MuSK [3]; 0.00183 s⁻¹ with cynomolgus monkey MuSK [4]; 0.00253 s⁻¹ in the assay with mouse MuSK [5]; 0.00314 s⁻¹ with rat MuSK [6]; 0.00915 s⁻¹ with mouse MuSK [8]. For the same molecule, the kon worked out at 800000 M⁻¹ s⁻¹ with cynomolgus monkey MuSK [1]; 70000 M⁻¹ s⁻¹ with mouse MuSK [2]; 40000 M⁻¹ s⁻¹ with rat MuSK [3]; 850000 M⁻¹ s⁻¹ with cynomolgus monkey MuSK [4]; 1.61e+06 M⁻¹ s⁻¹ with mouse MuSK [5]; 1.45e+06 M⁻¹ s⁻¹ in the assay with rat MuSK [6]. Besides, the “MuSK phosphorylation in C2C12 myotubes” value in assay [7] is ~80 % of 1 nM agrin.
